# How the values were obtained:
# [1] = molecular target: F-actin (rabbit skeletal muscle actin) (rabbit, UniProt P68135 1-377); test: co-sedimentation
# SEC = molecular target: the molecule itself; test: SEC
Binder,binding result [1],stoichiometry N (SEC)
yeast coronin (natural protein) MSGKFVRASKYRHVFGQAAKKELQYEKLKVTNNAWDSNLLKTNGKFIAVNWNASGGGAFAVIPIEEVGKAPDQVPLFRGHTAQVLDTDFDPFNDHRIASGSDDSKIGIWDIPENYKFHDHVDEDGEPIDIKPVKFLTGHARKVGHVLYHPVAENVLASSSGDYTVKLWNVETGKDMITLKHPDMVTSMSFSYDGNYLATVARDKKLRVWNIREEKIVSEGPAHTGAKNQRVVWLGNSDRLATTGFSKLSDRQIGIWDAFNIEKGDLGGFYTVDQSSGILMPFYDEGNKILYLVGKGDGNIRYYEFQNDELFELSEFQSTEAQRGFAVAPKRMVNVKENEVLKGFKTVVDQRIEPVSFFVPRRSEEFQEDIYPDAPSNKPALTAEEWFSGKSVEGPILVSMRSIYDGSAPSFHEAKRPQQPTTQETALEEKKEQPKVEKPISESEKEVKQEAPKSPSPLKSASSSSTINHVLKEDNSINKLLKKSSDIDQVNNAEDPSRDTSGWEEADDEPAPIKIETPVTPTETKKDRTPKVEPSKELKPEPVSIATDRKQEQSLPQEEKSSEKTKSPEQEKSATPPSSITAAKTAITASSKEEPSAARTSPKSLGLKKSVEKLSTLVLQLEDVVDKLTKANLDKDERLLKLEQKIGELSK,binds,
"endogenous Hip1R stripped from CCVs with 0.5 M Tris-HCl (natural protein, UniProt Q9JKY5 1-1068, looked up) MNSIKNVPARVLSRRPGHSLEAEREQFDKTQAISISKAINSQEAPVKEKHARRIILGTHHEKGAFTFWSYAIGLPLSSSSILSWKFCHVLHKVLRDGHPNVLHDYQRYRSNIREIGDLWGHLRDQYGHLVNIYTKLLLTKISFHLKHPQFPAGLEVTDEVLEKAAGTDVNNIFQLTVEMFDYMDCELKLSESVFRQLNTAIAVSQMSSGQCRLAPLIQVIQDCSHLYHYTVKLMFKLHSCLPADTLQGHRDRFHEQFHSLKNFFRRASDMLYFKRLIQIPRLPEGPPNFLRASALAEHIKPVVVIPEEAPEEEEPENLIEISSAPPAGEPVVVADLFDQTFGPPNGSMKDDRDLQIENLKREVETLRAELEKIKMEAQRYISQLKGQVNGLEAELEEQRKQKQKALVDNEQLRHELAQLKALQLEGARNQGLREEAERKASATEARYSKLKEKHSELINTHAELLRKNADTAKQLTVTQQSQEEVARVKEQLAFQMEQAKRESEMKMEEQSDQLEKLKRELAARAGELARAQEALSRTEQSGSELSSRLDTLNAEKEALSGVVRQREAELLAAQSLVREKEEALSQEQQRSSQEKGELRGQLAEKESQEQGLRQKLLDEQLAVLRSAAAEAEAILQDAVSKLDDPLHLRCTSSPDYLVSRAQAALDSVSGLEQGHTQYLASSEDASALVAALTRFSHLAADTIVNGAATSHLAPTDPADRLMDTCRECGARALELVGQLQDQTVLPRAQPSLMRAPLQGILQLGQDLKPKSLDVRQEELGAMVDKEMAATSAAIEDAVRRIEDMMSQARHESSGVKLEVNERILNSCTDLMKAIRLLVMTSTSLQKEIVESGRGAATQQEFYAKNSRWTEGLISASKAVGWGATQLVESADKVVLHMGKYEELIVCSHEIAASTAQLVAASKVKANKNSPHLSRLQECSRTVNERAANVVASTKSGQEQIEDRDTMDFSGLSLIKLKKQEMETQVRVLELEKTLEAERVRLGELRKQHYVLAGGMGTPSEEEPSRPSPAPRSGATKKPPLAQKPSIAPRTDNQLDKKDGVYPAQLVNY",,2
